Molecular target: OX40 (CD134) on mouse lymph node T cells (mouse) (UniProt P47741)
Test: cell-based or functional assay

interferon-gamma secretion (ELISA), after subtracting background of the negative control: 15 pg/mL
B1: OX40 agonistic antibody (OX86) (antibody, from another filing, V domains shown)
VH: QVQLKESGPGLVQPSQTLSLTCTVSGFSLTGYNLHWVRQPPGKGLEWMGRMRYDGDTYYNSVLKSRLSISRDTSKNQVFLKMNSLQTDDTAIYYCTRDGRGDSFDYWGQGVMVTVSS
VL: DIVMTQGALPNPVPSGESASITCRSSQSLVYKDGQTYLNWFLQRPGQSPQLLTYWMSTRASGVSDRFSGSGSGTYFTLKISRVRAEDAGVYYCQQVREYPFTFGSGTKLEIK

Reference: patent US20100076060A1
